Measured values from article PMC11008599.

Key:
[1] = target: aIL2_1-K8 (G4P linker), SNV-N frameworks (bovine (knob domain)); experiment: SPR; […], Biacore 8K+; […]; HBS-EP+; […]
[2] = target: aIL2_1-aIL2_1, SNV-N frameworks (bovine (knob domain)); experiment: SPR; […], Biacore 8K+; […]; HBS-EP+; […]
[3] = target: aIL2_1-aIL2_1-K8, SNV-N frameworks (bovine (knob domain)); experiment: SPR; […], Biacore 8K+; […]; HBS-EP+; […]
[4] = target: bispecific/bivalent aIL2_1-aIL2_1-K8 fusion, SNV-N stalks, GGGGP linkers; experiment: SPR; bridging SPR assay: immobilised C5, binding cycles of the knob domain fusions, then a binding cycle of IL-2
[5] = target: aIL2_1-K8 (G4P linker), BECN1 frameworks (bovine (knob domain)); experiment: SPR; multicycle kinetics, Biacore 8K+; knob domain constructs immobilised on a CM5 chip via amine coupling, IL-2 in solution; HBS-EP+; two-state binding model, only the fastest association and the slowest dissociation rate constants reported
aIL2_1-K8 (G4P linker), BECN1 frameworks (bovine (knob domain)), sequence (main, as listed by the source): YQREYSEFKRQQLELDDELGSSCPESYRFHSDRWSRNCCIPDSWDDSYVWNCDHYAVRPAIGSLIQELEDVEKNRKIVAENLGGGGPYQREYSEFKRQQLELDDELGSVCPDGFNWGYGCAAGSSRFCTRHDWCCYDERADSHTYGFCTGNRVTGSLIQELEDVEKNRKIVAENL

[6] = target: aIL2_1-aIL2_1, BECN1 frameworks (bovine (knob domain)); experiment: as above
aIL2_1-aIL2_1, BECN1 frameworks (bovine (knob domain)), sequence (main, as listed by the source): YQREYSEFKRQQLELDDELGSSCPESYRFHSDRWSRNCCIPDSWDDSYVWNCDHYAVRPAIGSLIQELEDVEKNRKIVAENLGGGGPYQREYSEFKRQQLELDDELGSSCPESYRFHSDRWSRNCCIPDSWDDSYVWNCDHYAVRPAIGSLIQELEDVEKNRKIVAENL

[7] = target: aIL2_1-aIL2_1-K8, BECN1 frameworks (bovine (knob domain)); experiment: as above
aIL2_1-aIL2_1-K8, BECN1 frameworks (bovine (knob domain)), sequence (main, as listed by the source): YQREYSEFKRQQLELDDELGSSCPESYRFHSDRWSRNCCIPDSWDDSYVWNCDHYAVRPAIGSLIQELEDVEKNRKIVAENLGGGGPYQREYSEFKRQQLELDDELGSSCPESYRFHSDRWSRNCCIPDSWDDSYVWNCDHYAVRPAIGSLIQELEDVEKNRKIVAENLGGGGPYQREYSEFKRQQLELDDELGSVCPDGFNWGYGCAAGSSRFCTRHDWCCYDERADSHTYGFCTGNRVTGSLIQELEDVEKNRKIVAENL

[8] = target: K8-K57, SNV-N frameworks (bovine (knob domain)); experiment: SPR; […], Biacore 8K+; […]; HBS-EP+ (10 mM HEPES pH 7.4, 150 mM NaCl, 3 mM EDTA, 0.005% P20); 1:1 binding model
[9] = target: aIL2_1-K8 (G4P linker), SNV-N frameworks (bovine (knob domain)); experiment: as above
[10] = target: K8-K57, BECN1 frameworks (bovine (knob domain)); experiment: SPR; multicycle kinetics, Biacore 8K+; knob domain constructs immobilised on a CM5 chip via amine coupling, C5 in solution; HBS-EP+ (10 mM HEPES pH 7.4, 150 mM NaCl, 3 mM EDTA, 0.005% P20); 1:1 binding model
[11] = target: aIL2_1-K8 (G4P linker), BECN1 frameworks (bovine (knob domain)); experiment: as above

human IL-2, sequence (P60568 21-153): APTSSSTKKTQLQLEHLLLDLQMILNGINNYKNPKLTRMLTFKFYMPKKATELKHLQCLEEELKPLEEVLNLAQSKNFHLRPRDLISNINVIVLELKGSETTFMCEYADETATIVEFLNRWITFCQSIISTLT

| Substance | Kd [1] | Kd [2] | Kd [3] | increase in signal upon IL-2 binding [4] | Kd [5] | Kd [6] | Kd [7] | Kd [8] | koff [8] | kon [8] | Kd [9] | koff [9] | kon [9] | Kd [10] | koff [10] | kon [10] | Kd [11] | koff [11] | kon [11] |
| --- | --- | --- | --- | --- | --- | --- | --- | --- | --- | --- | --- | --- | --- | --- | --- | --- | --- | --- | --- |
| human IL-2 (from UniProt P60568 21-153) (natural protein) | 9 nM | 5.7 nM | 5.5 nM | 26 RU | 10 nM | 7.5 nM | 7.1 nM | – | – | – | – | – | – | – | – | – | – | – | – |
| complement component 5 (natural protein) | – | – | – | – | – | – | – | 1.18 nM | 1.83e-05 s⁻¹ | 15400 M⁻¹ s⁻¹ | 26 nM | 0.00025 s⁻¹ | 9700 M⁻¹ s⁻¹ | 0.9 nM | 2.8e-05 s⁻¹ | 31000 M⁻¹ s⁻¹ | 29 nM | 0.00026 s⁻¹ | 8800 M⁻¹ s⁻¹ |
